Molecular target: recombinant human IL-8, (ser-IL-8)72 (human, UniProt P10145 28-99)
Experiment: competition radioimmunoassay (unlabeled IL-8/125I-IL-8)

B1: full length 6G4V11N35A IgG1 (antibody, V domains shown)
VH: EVQLVQSGGGLVQPGGSLRLSCAASGYSFSSHYMHWVRQAPGKGLEWVGYIDPSNGETTYNQKFKGRFTLSRDNSKNTAYLQMNSLRAEDTAVYYCARGDYRYNGDWFFDVWGQGTLVTVSS
VL: DIQMTQSPSSLSASVGDRVTITCRSSQSLVHGIGATYLHWYQQKPGKAPKLLIYKVSNRFSGVPSRFSGSGSGTDFTLTISSLQPEDFATYYCSQSTHVPLTFGQGTKVEIKR
- IC50: 0.059 nM

— patent US6468532 (dated 2002)
